Laboratory results published in the RNAGym collection of RNA variant scans (doi:10.1073/pnas.2313332121).

B1: TPR t1 (parent)
chain: GACCAAUCUGCCCUCAGAGCUCGAGAACAUCUUCGGAUGCAGAGGAGGCAGGCUUCGGUGGCGCGAUAGCGCCAACGUCCUCAACCUCCAAUGCAUCCCACCACAUGAUGAUGCCUGAAGAGCCUUGGUUUUUUG

Variants of: B1
Assay: polymerase ribozyme fitness, log enrichment relative to wild type (log ratio); higher = more active; in vitro selection for triplet polymerase activity
Procedure, shortened: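 Libraries of mutants in each subunit of a heterodimeric triplet polymerase ribozyme were generated by PCR and transcribed. In triplicate, each went through one in vitro selection round: annealing with biotinylated primer, partner subunit and triplets; frozen incubation at −7 °C; gel excision of extended constructs; streptavidin-bead capture; RT-PCR. Fitness, taken from Illumina sequencing of input and output libraries, is the logarithm of a genotype's enrichment over wild-type enrichment, averaged across replicates with inverse-variance weights. The logarithm is base 2, and genotypes needed ≥10 input reads and ≥1 read per output to be kept.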

Compared with G48C C79A, C49A U87C is higher in “polymerase ribozyme fitness (log ratio)” value: -3.15 for the first, 0.179 for the second.

Compared with A50C C72A, G48C C49G C72U C97U U116G is lower in “polymerase ribozyme fitness (log ratio)” value: 0.00514 for the first, -2.86 for the second.

Going from G48A G69A to G48C C56U C101A U112C G135C, the “polymerase ribozyme fitness (log ratio)” value rises from -4.63 to -0.346.

Going from C49U A84U C88A to C49U G93A, the “polymerase ribozyme fitness (log ratio)” value rises from -1.82 to -1.33.

First: G48A G63C C82G G113U U132A
Second: G48U C49U C72A C73A U131C
The “polymerase ribozyme fitness (log ratio)” value of the first is lower: -3.71 for the first, -2.61 for the second.

Compared with C49G C70A G110A A121C, G48A C62A C73U is higher in “polymerase ribozyme fitness (log ratio)” value: -4.74 for the first, -3.55 for the second.

First: C49A C72G
Second: C49U U81C A95G C102G G110U G135U
The “polymerase ribozyme fitness (log ratio)” value of the first is higher: -0.887 for the first, -7.51 for the second.

First: G48A U132A
Second: A50C G113U
The “polymerase ribozyme fitness (log ratio)” value of the first is higher: -0.715 for the first, -3.73 for the second.

First: G48C G128A
Second: C49U C115A
The “polymerase ribozyme fitness (log ratio)” value of the first is lower: -3.43 for the first, -0.871 for the second.

G48U C49U G71C C86A and A50G U55A G69A are within 0.2 log units of each other in “polymerase ribozyme fitness (log ratio)” value: -2.67 for the first, -2.85 for the second.

First: C49U U87A
Second: C49U U96A
The “polymerase ribozyme fitness (log ratio)” value of the first is higher: -0.416 for the first, -3.17 for the second.

First: G48C C49A U55C G61A A95G G110A
Second: C49G C79A
The “polymerase ribozyme fitness (log ratio)” value of the first is higher: -2.85 for the first, -3.75 for the second.

Compared with G48A C53A U59G G61C C79U C101A U126A, C49U C86U C97U G117C C124A is lower in “polymerase ribozyme fitness (log ratio)” value: -3.84 for the first, -4.42 for the second.

Compared with A50C G117C, A50U C56A G69C C80G C104G C115G C123U U130C is lower in “polymerase ribozyme fitness (log ratio)” value: -3.5 for the first, -8.59 for the second.

Going from C49A G51C A100C U132A to G48U C99U, the “polymerase ribozyme fitness (log ratio)” value rises from -5.52 to -3.34.

Compared with G48U C89A, G48A C53A U59G G61C is higher in “polymerase ribozyme fitness (log ratio)” value: -1.52 for the first, -0.194 for the second.

Going from C49A C73A C88U A91U C124U to G48C A95G U129C, the “polymerase ribozyme fitness (log ratio)” value falls from -0.744 to -1.6.

Going from C49A A91G to C49U G52U C56U G77U C101A, the “polymerase ribozyme fitness (log ratio)” value falls from -1.63 to -2.69.

First: C49A G61A G127C G135C
Second: A50G A74U A91C
The “polymerase ribozyme fitness (log ratio)” value of the first is higher: -0.458 for the first, -2.03 for the second.

Going from A50G U112C U116A to C49A C53A C86A U112G G128A, the “polymerase ribozyme fitness (log ratio)” value falls from -0.435 to -3.85.

First: G48C G60U
Second: G48A C53U G63U G110A
The “polymerase ribozyme fitness (log ratio)” value of the first is higher: -2.22 for the first, -3.27 for the second.

First: C49U A50G
Second: A50G G113U U131A
The “polymerase ribozyme fitness (log ratio)” value of the first is higher: -1.68 for the first, -4.11 for the second.

First: C49U C62G
Second: A50G A91C
The “polymerase ribozyme fitness (log ratio)” value of the first is lower: -4.14 for the first, -1.05 for the second.

Compared with C49U C70G C102A A111C U116A G120C, C49U C72U C89G is higher in “polymerase ribozyme fitness (log ratio)” value: -6.27 for the first, -1.87 for the second.

First: G48A G113A
Second: C49A G63U G65C G120C
The “polymerase ribozyme fitness (log ratio)” value of the first is higher: -1.61 for the first, -6.43 for the second.

Compared with A50U C88A G110A, G48U U54C C101U U130G is higher in “polymerase ribozyme fitness (log ratio)” value: -3.66 for the first, -1.13 for the second.

Going from G48A G60U to A50U C99U, the “polymerase ribozyme fitness (log ratio)” value falls from -0.531 to -5.15.

Going from G48U C62G A91U C123U U125A to G48A U96A C104U U131A, the “polymerase ribozyme fitness (log ratio)” value rises from -5.93 to -1.66.

Compared with G48U U109C, G48A G63A C86U U116A C124U is higher in “polymerase ribozyme fitness (log ratio)” value: -4.94 for the first, -2.18 for the second.

Compared with G48C C115A, C49A G113A is higher in “polymerase ribozyme fitness (log ratio)” value: -1.84 for the first, -0.955 for the second.

Going from C49U C53U C70U C79U to G48U U96C U116A A121U, the “polymerase ribozyme fitness (log ratio)” value rises from -4.07 to -1.06.

Going from C49A C94U to G48U C82U, the “polymerase ribozyme fitness (log ratio)” value falls from 0.159 to -1.32.

Compared with G48C A83G G122U, G48C U81A G127C is lower in “polymerase ribozyme fitness (log ratio)” value: -1.4 for the first, -3.51 for the second.

First: C49U G113A
Second: C49U A66G G120C C123G
The “polymerase ribozyme fitness (log ratio)” value of the first is lower: -1.68 for the first, -1.48 for the second.

Going from C49U C104A to C49G C53A U59G C72U C86U U132A, the “polymerase ribozyme fitness (log ratio)” value rises from -2.12 to -0.782.

Going from C49U A95U C102A to C49G G69A A100C C101U, the “polymerase ribozyme fitness (log ratio)” value falls from -3.2 to -5.56.

Going from C49G C62G C114A G117C to A50U C94U, the “polymerase ribozyme fitness (log ratio)” value rises from -7.8 to -0.732.

First: C49A U78A G117C G128A U131C U133G
Second: C49A U55C C88G C94U C124U
The “polymerase ribozyme fitness (log ratio)” value of the first is lower: -6.98 for the first, 0.14 for the second.

First: C49U C64A U81A G93U C114G C123U
Second: G48U C49G
The “polymerase ribozyme fitness (log ratio)” value of the first is lower: -6.8 for the first, -0.587 for the second.

Compared with A50C G63A U81A, G48U C123A U126A is lower in “polymerase ribozyme fitness (log ratio)” value: -0.41 for the first, -2.05 for the second.

Going from G48U G69A G135U to G48A C72G A103U A119G, the “polymerase ribozyme fitness (log ratio)” value rises from -5.98 to -3.79.

With C49G C88A G107U the “polymerase ribozyme fitness (log ratio)” value was -6.08.
